Assay results published in a protein production outcome set (Wang et al. 2014).

Assay: label from the status in PepcDB records

Row | Sequence | protein production
1 | MAADYTHFIHRQHAPPEVCLSAFSGHNDALDFPDSEGSPVSQSLIAALQNPALFPHPVEGFQVIETHISWVLLTGPFAYKVKKPVNFGFLDFTSLDAREHFCGEELRLNQRLTEDLYLEVLPITGSAEAPVLGGDGPAIEYVLKMRQFPQSQLLSTLQANSELTTAHIDEMARQIAHFHLNAPKVPAEHEAGTPESVMAPVRQNFEQIRPFLSDKADLQQLEALEAWAETSFERLKPLLAQRKSEGFIRECHGDIHLGNATLIDGKVVIFDCIEFNEPFRFTDVYADTGFLAMDLEDRGLKSLARRFISQYLELTGDYQGLELLNFYKAYRALVRAKVSLFSMPAEATPVQRATTLRQYRNYANLAESYSTIPSRFLAITSGISAVGKSRVAMRLVEALGAVRLRSDVERKRLFGEQQVPNDPHAGIYSSEASSATYARLHEIAETILRAGFPVVIDATYLKRAQRDAAAKVAEATGTPCLIIDCNAPEAVVASWLAQRQADQNDPSDATLEVIANQQATREALTDEELLRSKRIETNESGSLDALVANIRQRLPGLLEHHHHHH | failed
2 | MTRSEQNPVLFLAPDNVLWLLYTAQKSGNQDTAIVRYRQSTDLGATWGEIGTLLDQPGTFIRQPITVLENGDWLLPVFYCRVQPGEKWVGNDDDSAVKISSDQGKTWREYPVPNSTGCVHMNITPLQDGTLLALYRSRWADFIYQSRSTDGGKTWSEPVATDLPNNNSSIQVTTLKNGHLALVFNHMSAADATDRRLSLYDEIEDEEDKASGAKMPEVQAGDRSAFWGAPRAPMTLAISEDGGKSWPYQRNIEVGDGYCMTNNSTEKLNREFSYPSVKQAPDGKLHVAFTYFRQAIKHVVVSEEWVKAGLEHHHHHH | failed
3 | MTTGVRRRMGVEERRQQLIGVALDLFSRRSPDEVSIDEIASAAGISRPLVYHYFPGKLSLYEAALQRASDDLADRFVEPRQGPLGARLLRVMGRYFDFVDEHGPGFSALMRGGPAVGSTTTNALVDSVRQAAYVQILSHLDVTEPPARLELVVRSWISLAESTALLWLDGRRIPRAELETQLVHDFAALMAVSAAYDEEMGALVRRVLADEPEDGPFGDLVDRLLALSAR | not failed
4 | MEKVTLIATATMGLEALVAREVKDLGYEDVKVENGKVTFTSDVAAIPRANLWLRTADRVKLKVGEFKALTFDELFEKTKSLPWADIIPVHAEFPVIGRSVKSKLFSVSDCQAIVKKAVVESMKKRYKRGWFDENGPLYRIEVALHKDIATLTIDTSGTGLHKRGYRYLHSQAPLKETLAAAIIMLSHWKSDRPFADPFCGSGTIPIEAAMIGQNIAPGFNREFVSEQWHWIGSEHWDRAREEVEDMANYDQPLDILGSDIDHRMVELAQNNAMEAGFGDLISFKQMQVTDFRHKEEYGILIGNPPYGERIGEREEVEKMYQKMGEVFREHLETWSIYILTSHEGFEELYGKRATKKRKLYNGNIKTDYYQFFGPRPPRHPEGSQQ | failed
5 | MRSRPTEGNLLVSIGIPFLNPGPYLDLAVRSVFAQTYLNWELILVDDGSTDGSYERAVAIQDPRVRVLRDGQNKGLPARLNEIVRLAKGELVARMDADDAMHPLRLEKQVGFLQANPELDGVTTGAYLIDAEDRPIALLPGRQPSAQEVLARGGFLHPSLLARKSWFEAHPYSLDYPRAEDRELFVRTFKTSRLHVLSEPLYFYRWFGVPRGKTLRIGYRSERKVMWKYGPNLVGWGPSLRLIALSFGKELLTWFLEWTHLEKGFQTRRAFQPLLEMDQREALRTLKVIRETCVPGWDLEHHHHHH | failed
6 | MKDSDKEKENGKMGCWSIEHVEQYLGTDELPKNDLITYLQKNADAAFLRHWKLTGTNKSIRKNRNCSQLIAAYKDFCEHGTKSGLNQG | not failed
7 | MQEVHDYGIKFWSNNEFKIEKGLVKVCHGKNPSLLEIVQSVRDKGYRGPLLVRFPHLVQKQIKSLFDAFSSAIKEYQYSGAFKAVFPLKVNQMPSFVFPLVQGAKGLNYGLEAGSKSELIIAMSYTNPKAPITVNGFKDKEMIELGFIAKSMQHEITLTIEGLNELKTIIAVAKQNEFLACPKIGIRIRLHSTGTGVWAKSGGINSKFGLSSTEVLEAMRLLEENDLLEHFHMIHFHIGSQISDISPLKKALREAGNLYAELRKMGAKNLNSVNIGGGLAVEYTQHKHHQDKNYTLEEFSADVVFLLREIVKNKQEIEPDIFIESGRYISANHAVLVAPVLELFSHEYNEKSLKIKENNNPPLIDEMLDLLANINEKNAIEYLHDSFDHTESLFTLFDLGYIDLIDRSNTEVLAHLIVKKAVQLLYVKDHNDILRIQEQVQERYLLNCSFFQSLPDYWGLRQNFPVMPLNKLDEKPTRSASLWDITCDSDGEIAFDSTKPLFLHDIDIDEEEYFLAFFLVGAYQEVLGMKHNLFTHPTEFSVVFDEKGDYEVEDICEAQTILDVLDDLDYDTKEIERLLKQKIEDNNQLDMEEKKEIMGRLYVMLSENGYLRTIS | failed
